Among the data in publication PMC5773591, “Structural basis of trans-synaptic interactions between PTPδ and SALMs for inducing synapse formation” (Nature Communications, 2018) are screen value values, retold here.

B1: human SALM5 LRR–Ig-His6 (residues 18–378) [human] / itself (parent)
chain: QICPKRCVCQILSPNLATLCAKKGLLFVPPNIDRRTVELRLADNFVTNIKRKDFANMTSLVDLTLSRNTISFITPHAFADLRNLRALHLNSNRLTKITNDMFSGLSNLHHLILNNNQLTLISSTAFDDVFALEELDLSYNNLETIPWDAVEKMVSLHTLSLDHNMIDNIPKGTFSHLHKMTRLDVTSNKLQKLPPDPLFQRAQVLATSGIISPSTFALSFGGNPLHCNCELLWLRRLSREDDLETCASPPLLTGRYFWSIPEEEFLCEPPLITRHTHEMRVLEGQRATLRCKARGDPEPAIHWISPEGKLISNATRSLVYDNGTLDILITTVKDTGAFTCIASNPAGEATQIVDLHIIKLP

In the assay the parent is B1. Description: SEC-MALS. Conditions: with itself; read off a plot.
Take chain 1 N141A: the screen value was 56 kDa.
